Data as given in US20210238569A1.

What was measured:
[1] = molecular target: protease-activated RNA polymerase (PA-RNAP) including the HCV protease substrate (UniProt P00806)
[2] = system: TEV protease wild-type substrate sequence ENLYFQSA
[3] = molecular target: protease-activated RNA polymerase (PA-RNAP) including the TEV protease substrate (UniProt P00806)
[4] = system: target substrate sequence ENLYFESA

protease-activated RNA polymerase (PA-RNAP) including the TEV protease substrate, sequence (P00806 whole entry, looked up): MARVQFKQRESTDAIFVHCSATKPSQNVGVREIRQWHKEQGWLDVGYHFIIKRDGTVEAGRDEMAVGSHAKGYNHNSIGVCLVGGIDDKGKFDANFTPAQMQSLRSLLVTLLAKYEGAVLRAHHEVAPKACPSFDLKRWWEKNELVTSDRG
protease-activated RNA polymerase (PA-RNAP) including the HCV protease substrate, sequence (P00806 whole entry, looked up): as above

Substance | Western blot of PA-RNAP sensor activation (proteolysis) [1] | cleavage of substrate sequence [2] | Western blot of PA-RNAP sensor activation (proteolysis) [3] | cleavage of substrate sequence [4]
hepatitis C virus (HCV) protease, constitutively active construct that includes the NS4a cofactor peptide | the PA-RNAP sensor is proteolyzed to a smaller band of anticipated molecular weight only in the presence of a cognate protease that can cleave the peptide sequence in each PA-RNAP linker |  |  | 
tobacco etch virus (TEV) protease, expressed as MBP-TEV fusion protein |  | Wild-type TEV protease cleaves the substrate sequence ENLYFQSA (SEQ ID NO: 24) | the PA-RNAP sensor is proteolyzed to a smaller band of anticipated molecular weight only in the presence of a cognate protease that can cleave the peptide sequence in each PA-RNAP linker | does not cleave the target substrate sequence ENLYFESA (SEQ ID NO: 25)
